# Assay: soluble on expression in E. coli; label from the status in PepcDB or PDB records
row,Sequence,soluble on expression in E. coli
1,MQNSTTEFLKPRQIDVNTFSATRAKVSMQPFERGFGHTLGNALRRILLSSMNGFAPTEVAIAGVLHEYSTVDGIQEDVVDILLNIKGIVFKLHGRSQVQLVLKKSGSGVVSAGDIELPHDVEILNPGHVICHLADNGQIEMEIKVEQGRGYQSVSGRQVVRDENRQIGAIQLDASFSPISRVSFEVEPARVEQRTDLDKLVLDIETDGSIDPEEAVRSAARILIDQMSIFADLQGTPVEEVEEKAPPIDPVLLRPVDDLELTVRSANCLKAEDIYYIGDLIQRTETELLKTPNLGRKSLNEIKEVLASKGLTLGSKLEAWPPVGLEKP,soluble
2,MGSDKIHHHHHHMDFIEVYPNALPNDLCDRLILAFEQHAGVVDGQTGNGVDLEKKISRDLTLDSFADLQPLKNELLGYTLKGTVDYFTKYSMALMGAVAVSVSDEQGQPVTLTPANFAALGAPRSDGLVKYLYRSGSINVQKYQQNKGGYPHWHSEQFPQNGHNEALHRVVLYMFYLNDMEEGGETEFYYQQRKISPKKGTMVIAPAGFTHTHRGNKPVSGDKYIATSWIMFNRAEQLYAVIA,not soluble
3,MGSDKIHHHHHHMSDKTKELRNKYNSKNRHKNFGPCLRKVHIEGFRGVQSADLELEFPITAISGLNGSGKSTVGQLAICAYKKPDKSMTYKRLYIKDFFPVSPADPKPISDSAKVVYFYETDDYQKPKEVTVSRVKSSWSGYKRQPERYCYYIGFTVYLPKVERRDLSVYAGVNLQFTEKRDIEAEVVKKMARIIGHKYENVAFQGVSHNGKESEVGIAYRLGYSYSENNMGFGEGRILYTIDKLESSPEQSLFILEEPETSLHESAQHEFAKYLLDVCNRRHHQIILSTHSSVIVNALPPESRKLMIRDEGGVDIRNKISSGQLRSILSSGHVRSLDICVEDNFAKVLLIEVIRMKRKALLKIVEIHAIGSTDAVREAVRILKKTGKKAIAVRDADIGPSEKEGLYSFPGNKPPEKEVFEHSAVKAFFKSKYDLDVEWFFQYKNVSDHHYYAKCIASEIASDESVIQTSAIEEYLKHVNNNFDYLIDAIEKELDNHN,not soluble
4,MHIEEKTTQLQDQQQVSITIYNENLALVRDLRHVPLEKGINKLAWCDVSAQIRPETALLRTPEKTSSIRMVEQNFDFDLLTPEKLLEKYLGRSVNVIYVNPATGAETVEAAIVLSISGGVVLKFKDRIETGTPGRIAFPDVPGSLHDHPTLSLVLDGATPGKHELELSYLTSGLSWQADYVARLDANDGRLDLSGLVTLANHSGIAYPDAHLQLVSGEVNQVTPEPPQARKMMAMVADAAEYQAVREESLSEYHLYSLPVPTTLAENQSKQITLMSVTDIPVSQEFLLRGTNAYYFSRYSNLDDKLKPVVLIQFKNEGEGLGVPLPRGTIRVYQNDSRDNLQFLGEDHIDHTAKNEEVRVKLGKATDITAMRTQTDFQQLDTPSRRFTETATDITAMRTQTDFQQLDTPSRRFTETAHQIEIHNARQEAVTIRVQEPIPGDWMMISESQPHTKSSANLVEWLVKVPTNQKTILSYRVRIKHLEHHHHHH,not soluble
5,MQKINDAGELAKHSVVVTTFDTIKTLMNFQTLQKISFERIIIYDAYPIDNTDTQRYKALRQLDATYRWVLTGNLLQQNLANFLKLGEYGDDQLWDTQICPILEGKQCDEKTELSKKIENLLKSVELKFPLENYREMEVGADDSQ,not soluble
6,MSVEAEKAVLGTFLECPYLLKETVLTETHFSDPKHRKLFAAMKRIAQQGDEPDIVTLSTTEDVADFGGLSYLNEVSAFANETKFDQYEALVLDEWKEREKRRILVVAAQENWDIDKITTALTRLNEGRITDHHDISDLLHEVAEAPWTPTERKMGAPSGISELDKMLNGFNDGDSIILAARPSMGKTDFMIHFAKSVGWHGYLPIVFSLEMAADKIRDRLIGSIGGFNRMKLRNPYHDLSEEQKRMWIEVIGKASETRMQIFDGAGQSIADIRSKIRKAINRFPDRKPVVFIDYLTLIRPERYYGGNMHLQVTEISRAIKETAKEFSCPIITLAQLSRDVEKRSDKRPLMSDIRESGSIEQDADVVIFLYRDSYYNADADPRVAEVIVAKSRNGAVGTVRVSYNRNTGVIQDLYRP,not soluble
7,MKKTYVLDTNVLLQDPHAIFAFQDNEVVIPAVVLEEVDSKKRYMDEIGRNARHFSKLIDQLRGLGKLHEGVPLENGGKLRIELNHKSYEKVKDSFAEMTNDNRIIAVALNLSLEETEKPNGNQVILVSKDALVRVKADALRLKAEDFLNDRVIQYDRGY,not soluble
8,MVLSQTHHHHHRHEGNDRSLISILTDPIVNLFRSIPIEILDQNEELSPSQKDFLDDFLELQNDSDLEESEDFIQESQEVVSSVDDEIKVILNEIINQVETETQLIPKIIIHSDDAEVPEESIEIAVQSFGCPLDSFSGLSDSGVDLTVDDVPDDEDDEITVQTFESTPKELPTVTKFTNCTFIRSQSSARCKAILPDTTYICTLPPVSATFSAPVVTPKKIVKRKKSTSAAAKMAAEVLQNEPHCFIAPSSSIDRPFKLLVQKETFLIDAESMSRISPIFNVMCFGKDFEKMDLSREIVDEKSNDIDCFLRAVHDTSMINSSNFALVLRLSNKYQVDPVIDACQNFIIRQHLDVLRADEILTMLIAAFEHHCKREVVQKLIKRLASEGNSVFTKLKISRYLPAQVYGSVISTSMNLNQAKEHELMNGHVLKMERSKIRWRQSVCEECKSVAECANCEECKKTVCRNHVSKLKCSSDYGAKLAADLKKKIVDFEWQD,not soluble
9,MGHHHHHHSHMEQTEVLKPRTLADLIRILHQLFAGDEVNVEEVQAIMEAYESDPIEWAMYAKFDQYRYTRNLVDQGNGKFNLMILCWGEGHGSSIHDHTNSHCFLKMLQGNLKETLFAWPDKKSNEMVKKSERVLRENQCAYINDSIGLHRVENISHTEPAVSLHLYSPPFDTCHAFDQRTGHKNKVTMTFHSKFGIRTPNATSGSLENN,not soluble
10,EEPEHSYDNSWGMGYGSSNSRSYGSQNSRSYGSPRTPKLPKHSNKPAIALNVGDRVNHEKYGLGTVTKVDKMAPADSVTIDFGSSGTVRLMLIGSVPMEKL,not soluble
11,MEIEVTPVDILLQLVKMGKVDPWNIDIVDLTEKYIKMLREMQELDLRISARAILAAAILVRMKSEALLNEDSREQEEKEEERIRVEVDPLVPPLRRVERYYTLDDLIDALMEALEEAERRKPKKKKKVEIDEEIFVIDDFRVDIEKYVEELYKVVKKIYEKTGTPIKFWDLVPDVEPKIIARTFLYLLFLENMGRVEIIQEEPFGEILVVPM,soluble
12,IQHATASLIQTNTDQELLVVDVTPSFASLWLVPNINDFHQRHPNIRVKILTGDGAVKNIHGESDLHVRCLPLSTHYEYSQLLCEETLLLIGNTNLPKLSDNQAISHYPFIPQTTRPQLWEQFKQENDLECPITYHSVGFEHFYLACEAVRMEKGLALLPDFMAQFSILRGDIQHIGNLKLHSGYGYYVVIPNFRLTSRKVALFHDWLKDKLTHHT,soluble
13,MSLTMPAESAATVRGRRYPADPEWFCDFRTFPVQGLGPEVGVHRRDPSSVLTVDGRYHVWYTRSTGETDGFGTGDPMAKVFPWDWSEIWHATSDDGATWVEQGRALGRGEPGSYDDRSVFTPEVLEHQGWFYLVYQVIRSPYALRSFESIAMAKAPSPDGPWVRSPQPILRPQADGEWAGEEDNRLSVVSQGSFDSHKVHDPILVPFQGRFFLYYKGEQMGEGFSAGGRTTRWGLAIADDIEGPYHRCPANPVTNSGHETCVWRYGDGIAAMLTTDGPERNTIQFAPDGINFEIMAHIANPPVATGPLRLPDHAVAPLDGVRWGLCHDVTASWHYIQGFAADERQKMFYTRGLSPETAESAEADALPAPHEKEGHHHHHH,soluble
14,MGSDKIHHHHHHMRAIAIVLARSSSKRIKNKNIIDFFNKPMLAYPIEVALNSKLFEKVFISSDSMEYVNLAKNYGASFLNLRPKILADDRATTLEVMAYHMEELELKDEDIACCLYGASALLQEKHLKNAFETLNKNQNTDYVFTCSPFSASPYRSFSLENGVQMAFKEHSNTRTQDLKTLYHDAGLLYMGKAQAFKEMRPIFSQNSIALELSPLEVQDIAHFRRFRISQAQIQPFEKRMPVKILCDCFLTSGLGHVRRCEKILSFIEKLGVEASLYLHKQNNISAFLEGVGGNDFLITDSYCLNSKDFYLLKEKAKSLMVIEDTEHAKGFYPKNTKILNFTLNALKHYHHLSKDYQYYLGVGFYPVDARFIYDRPINTENKEVLITLGGSEQKTLKEIVKILENKNVNLHIISPYTPKNPPKNTHYYSPLNPLEFSSLMKSCACAISAAGQTLYELALSQTPSLILPIASNQIIQSKEFESLGIFKQTSLKTLAKDFENLQIQKNQAWAKNLVFGDKLEGALREFLEI,not soluble

# — the DeepSol protein solubility set
